Results taken from patent US20150267176.

What was measured:
[1] = test system: SCL enhancer TALE-3X FLAG; conditions: anti-FLAG ChIP-seq in K562, input 1; top ranked and only reproducible peak; exact SCL target not identified in text (candidates SEQ 9, 11, 37)
SCL enhancer TALE-LSD1 = assay: cell_activity; conditions: K562 ChIP-qPCR vs mCherry; H3K27ac reduced >4-fold
[2] = test system: TALE-LSD1 #11 (ZFPM2 +16); assay: cell_activity; conditions: expression change not significant; histone modification levels at target reduced; +16 matched to #11 by coordinates
[3] = test system: TALE-LSD1 #25 (ZFPM2 +10); assay: cell_activity; conditions: K562 RT-qPCR; +10 enhancer matched to #25 by coordinates; also reduces enhancer histone marks
[4] = test system: TALE-LSD1 #28 (ZFPM2 +45); assay: cell_activity; conditions: expression change not significant; histone modification levels at target reduced; +45 matched to #28 by coordinates

Substance: SCL enhancer 18 bp TALE target (18/18)
- binding signal (tags per 1 kb bin) [1]: 17.5
- activity (fold reduction of H3K4me2) (SCL enhancer TALE-LSD1): 3

Substance: TALE #11 target chr8:106,347,824
- activity (% reduction of ZFPM2 expression) [2]: 13

Substance: TALE #25 target chr8:106,341,287
- activity (fold reduction of ZFPM2 expression) [3]: 2

Substance: TALE #28 target chr8:106,376,850
- activity (% reduction of ZFPM2 expression) [4]: 22
